Legend:
[1] = target: T1, PP2A catalytic subunit (PP2Ac) (human (endogenous in HECs), UniProt P67775 1-309); assay: co-IP; GSK-3β, PR55α or PP2Ac immunoprecipitated (antibody with protein A or protein G agarose, 90 min at 4°C) from RIPA lysates of HECs with equal amounts of protein; immunoblot for β-catenin; cells 3 d in KGM or in CR culture (F+Y+J2); conditions: partners not purified
T1 construct: catalytic (C) subunit of protein phosphatase 2A, endogenous in primary human ectocervical cells (HECs); also called PP2A C subunit; source: endogenous, lysate of primary human ectocervical cells (HECs) in RIPA buffer
T1 sequence (P67775 whole entry): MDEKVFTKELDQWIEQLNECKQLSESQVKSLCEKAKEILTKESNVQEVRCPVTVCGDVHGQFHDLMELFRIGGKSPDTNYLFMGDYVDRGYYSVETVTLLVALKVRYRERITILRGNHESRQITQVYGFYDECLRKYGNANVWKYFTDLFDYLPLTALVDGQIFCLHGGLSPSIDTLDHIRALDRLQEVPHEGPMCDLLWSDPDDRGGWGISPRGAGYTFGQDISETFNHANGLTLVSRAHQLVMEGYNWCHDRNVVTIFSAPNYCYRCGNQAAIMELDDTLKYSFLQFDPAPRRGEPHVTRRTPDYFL

[2] = target: T2, PR55α, the α isoform of the 55 kDa B-type regulatory subunit of PP2A (human (endogenous in HECs), UniProt P63151 1-447); assay: as above; conditions: partners not purified
T2 construct: PR55α, α isoform of the 55 kDa B-type regulatory subunit of protein phosphatase 2A, endogenous in primary human ectocervical cells (HECs); also called PP2A regulatory subunit; source: endogenous, lysate of primary human ectocervical cells (HECs) in RIPA buffer
T2 sequence (looked up): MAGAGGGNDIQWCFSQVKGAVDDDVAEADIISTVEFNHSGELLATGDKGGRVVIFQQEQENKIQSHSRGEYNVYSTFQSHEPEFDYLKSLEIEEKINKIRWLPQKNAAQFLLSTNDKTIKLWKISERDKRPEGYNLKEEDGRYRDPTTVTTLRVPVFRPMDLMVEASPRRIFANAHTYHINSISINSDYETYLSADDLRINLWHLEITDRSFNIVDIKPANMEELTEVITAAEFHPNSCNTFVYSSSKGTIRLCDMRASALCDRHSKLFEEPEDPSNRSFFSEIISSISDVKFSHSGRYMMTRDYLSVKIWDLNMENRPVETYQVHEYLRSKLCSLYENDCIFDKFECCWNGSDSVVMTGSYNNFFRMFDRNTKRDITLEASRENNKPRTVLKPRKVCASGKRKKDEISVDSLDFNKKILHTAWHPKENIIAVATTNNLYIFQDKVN

fold more co-precipitated in CR cells than in KGM [1]: 3.8 fold | fold more co-precipitated in CR cells than in KGM [2]: 25 fold
B1: β-catenin (natural protein, human (endogenous in HECs), UniProt P35222 1-781, looked up)
chain: MATQADLMELDMAMEPDRKAAVSHWQQQSYLDSGIHSGATTTAPSLSGKGNPEEEDVDTSQVLYEWEQGFSQSFTQEQVADIDGQYAMTRAQRVRAAMFPETLDEGMQIPSTQFDAAHPTNVQRLAEPSQMLKHAVVNLINYQDDAELATRAIPELTKLLNDEDQVVVNKAAVMVHQLSKKEASRHAIMRSPQMVSAIVRTMQNTNDVETARCTAGTLHNLSHHREGLLAIFKSGGIPALVKMLGSPVDSVLFYAITTLHNLLLHQEGAKMAVRLAGGLQKMVALLNKTNVKFLAITTDCLQILAYGNQESKLIILASGGPQALVNIMRTYTYEKLLWTTSRVLKVLSVCSSNKPAIVEAGGMQALGLHLTDPSQRLVQNCLWTLRNLSDAATKQEGMEGLLGTLVQLLGSDDINVVTCAAGILSNLTCNNYKNKMMVCQVGGIEALVRTVLRAGDREDITEPAICALRHLTSRHQEAEMAQNAVRLHYGLPVVVKLLHPPSHWPLIKATVGLIRNLALCPANHAPLREQGAIPRLVQLLVRAHQDTQRRTSMGGTQQQFVEGVRMEEIVEGCTGALHILARDVHNRIVIRGLNTIPLFVQLLYSPIENIQRVAAGVLCELAQDKEAAEAIEAEGATAPLTELLHSRNEGVATYAAAVLFRMSEDKPQDYKKRLSVELTSSLFRTEPMAWNETADLGLDIGAQGEPLGYRQDDPSYRSFHSGGYGQDALGMDPMMEHEMGGHHPGADYPVDGLPDLGHAQDLMDGLPPGDSNQLAWFDTDL
notes: β-catenin, endogenous in primary human ectocervical cells (HECs); Endogenous protein; its phosphorylation state in the co-precipitate was not determined; source: endogenous, lysate of primary human ectocervical cells (HECs) in RIPA buffer

From PMC5507294 (PLoS ONE, 2017)
